Read-outs that look alike come from different tables or passages of the source. Blank lines part the entries; values can stand above or below the substance they belong to.
Experiments:
Test in all cases: cell-based or functional assay
[1] = molecular target: IL-2Rβ and common γ chain (on 32Dβ cells)
[2] = molecular target: IL-2Rαβγ (on CTLL-2 cells)
[3] = molecular target: IL-2Rβ and common γ chain (on 32Dβ cells); remark: listed apart in the source
[4] = molecular target: IL-2Rβ and common γ chain (on 32Dβ cells); remark: listed apart in the source
[5] = molecular target: IL-21R (on B9 cells)
[6] = molecular target: TGFβ1 (R&D systems) (UniProt P01137)
[7] = molecular target: TGFβ1 (R&D systems) (UniProt P01137); remark: listed apart in the source

TGFR-Fc (R&D Systems), sequence (P37173 24-159): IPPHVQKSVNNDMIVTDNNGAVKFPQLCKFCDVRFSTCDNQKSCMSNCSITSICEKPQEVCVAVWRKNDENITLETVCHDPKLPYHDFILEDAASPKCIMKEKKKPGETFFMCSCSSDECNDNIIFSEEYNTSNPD
TGFβ1 (R&D systems), sequence (P01137 279-390 limits assumed): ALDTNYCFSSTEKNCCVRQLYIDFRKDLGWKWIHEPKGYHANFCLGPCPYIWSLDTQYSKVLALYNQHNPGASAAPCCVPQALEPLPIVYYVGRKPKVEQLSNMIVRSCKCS

EC50, 32Dβ cell proliferation (WST-1) [1]: 0.0016 nM
EC50, CTLL2 cell proliferation (PrestoBlue) [2]: 0.00495 nM
EC50, CTLL2 cell proliferation (WST-1) [2]: 0.00622 nM
EC50, 32Dβ cell proliferation (WST-1) [3]: 0.0106 nM
EC50, 32Dβ cell proliferation (WST-1) [4]: 0.0166 nM
Substance: recombinant IL-15 (from UniProt P40933 49-162) (ligand)

EC50, B9 cell proliferation (WST-1) [5]: 72.5 nM
Substance: recombinant IL-21 (from UniProt Q9HBE4 32-162) (ligand)

EC50, CTLL-2 cell proliferation (WST-1) [2]: 0.548 nM
Substance: recombinant IL-2 (from UniProt P60568 21-153) (ligand)

IC50, inhibition of TGFβ1 activity, HEK-Blue TGFβ reporter cells [6]: 0.559 nM
IC50, inhibition of TGFβ1 activity, HEK-Blue TGFβ reporter cells [7]: 0.461 nM
Substance: TGFR-Fc (R&D Systems) (from UniProt P37173 24-159) (Fc fusion)

Reference: patent US20230372399A1
